The target in this test is T1, ^15N-labeled human eIF4E (human, UniProt P06730 1-217).
T1 construct: human eukaryotic translation initiation factor eIF4E, in pET-15b; Uniformly ^15N-labeled; also called cap-free eIF4E; source: overexpressed and purified as described in Volpon et al. (2016)
As to the kind of experiment: NMR titration; ^1H–^15N HSQC of ~40 µM ^15N-labeled cap-free eIF4E, unlabeled LRP10A added to ratio 1:4; 20°C, 50 mM sodium phosphate pH 7.3, 100 mM NaCl, 1 mM DTT, 7% D2O. The following applies: both partners purified.

From paper PMC5435865, “A biochemical framework for eIF4E-dependent mRNA export and nuclear recycling of the export machinery” (RNA, 2017) come the findings set out here.

T1 sequence (P06730 whole entry): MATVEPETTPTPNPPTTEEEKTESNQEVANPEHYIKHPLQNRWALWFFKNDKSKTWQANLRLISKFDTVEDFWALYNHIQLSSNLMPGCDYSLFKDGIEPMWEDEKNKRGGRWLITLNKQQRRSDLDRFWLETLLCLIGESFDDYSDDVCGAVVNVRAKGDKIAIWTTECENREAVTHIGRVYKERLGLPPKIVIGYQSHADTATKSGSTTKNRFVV

B1: synthetic peptide LRP10A (N-Ac-EGFPIRPHYFWPLLVGRRKEK-NH2) (peptide)
peptide: Ac-EGFPIRPHYFWPLLVGRRKEK-NH2
notes: human LRPPRC, residues 433-453 (helix 10A); source: synthetic peptide, bought: Biomatic Corporation
Take B1: the binding result is on record as “binds”.
